Source: US7105166
One block for each substance: values may come before it.

Tests used:
[1] = target: CTLA4Ig (human); assay: 125I-B7Ig (4 nM) on plate-coated CTLA4Ig
[2] = target: CTLA4Ig (human); assay: solid phase competition of 125I-B7Ig binding to immobilized CTLA4Ig
[3] = target: CTLA4Ig (human); assay: Scatchard analysis of competition data, 125I-B7Ig on immobilized CTLA4Ig
[4] = target: CD28Ig (human) [IgG part: P01857]; assay: inhibition of 125I-B7Ig binding to immobilized CD28Ig
[5] = target: CD28 expressed on transfected cells (human) (UniProt P10747); assay: inhibition of 125I-B7Ig binding to cell surface expressed CD28
[6] = target: B7 antigen (B7-1, CD80) expressed on cells (human) (UniProt P33681); assay: cell-based or functional assay
[7] = target: B7Ig (human) (UniProt P33681); assay: solid phase competition of 125I-B7Ig binding to immobilized CTLA4Ig

radioactivity bound to wells treated without competitor [1]: 28300 cpm
IC50 [2]: 175 nM
Kd [3]: 12 nM
Substance: B7Ig (from UniProt P33681 35-249; P01857 99-330) (Fc fusion)

inhibition of ^125I-B7Ig binding [4]: > 90%
inhibition of ^125I-B7Ig binding [5]: > 90%
Substance: mAb 9.3 (antibody)

inhibition of Th-induced IgM production [6]: 65%
IC50 [7]: 22 nM
Substance: mAb BB-1 (antibody)
